Patent US6740739B1, “Substitutional variants of APO-2 ligand” (Genentech, Inc., priority 1998, dated 2004)

How the values were obtained:
SK-MES-1 cells = test: Apoptosis bioassay with crystal violet staining; type: cell-based, human; details: 24 hours, FIGS. 17 and 18
Protocol: SK-MES-1 human lungcarcinomacells (ATCCHTB 58) were culturedin DMEM:Ham'sF-12 (50:50) media supplemented with 10% FBS, 2 mM L-glutamine, 100 U/ml penicillin, and 100 microgram streptomycin. SK-MES-1 cells were seeded in 96-well Falcon tissue culture treated microplates in a volume of 0.1 ml at a density of 4.0×10^4 cells/well and allowed to attach overnight at 37° C. Apoptosis was induced by adding the various Apo-2L substitutional variants or Apo-2L (consisting of amino acids 91-281 of FIG. 1A; referred to as Apo-2L.2) for 24 hours. Following treatment with the test proteins, the media was removed and the wells were stained for 15 minutes with a 0.5% solution of crystal violet in methanol. The cell number was determined by measuring optical density of the dry plates at 540 nm using a SLT 340 ATC plate reader (Salzburg, Austria).

DR4 = target: T1, DR4 (Homo sapiens, UniProt O00220); test: BIAcore kinetic binding analysis; details: IgG-receptor fusion DR4 immobilized; significant = >2-fold; FIG. 19
T1 construct: Each of the Apo-2L receptor proteins were prepared as immuno adhesin sessentially as described in Ashkenazi et al; made in house
Protocol: (§1) For comparison, Apo-2L, consisting of amino acids 91-281 was also tested in the BIAcore for binding to the IgG-receptor fusion molecules. Each of the Apo-2L receptor proteins were prepared as immuno adhesin sessentially as described in Ashkenazi et al., Proc. Natl. Acad. Sci., 88:10535-10539 (1991). The IgG-receptor fusion molecules were immobilized to the CM5 BIAcore chip, research grade (Pharmacia), using NHS-EDC amine coupling chemistry. The Apo-2L alanine-substituted proteins were serially diluted 2-fold from 500 nM to 15.625 nM in the BIAcore running buffer, PBS/0.05% Tween 20, and passed across the sensor chip surface with immobilized receptor. Specific kinetic binding parameters were used to determine the KD value using the BIAcore evaluation software (according to manufacturer's instructions).

DR5 = target: T2, DR5 (Homo sapiens, UniProt O14763); test: BIAcore kinetic binding analysis; details: IgG-receptor fusion DR5 immobilized; significant = >2-fold; FIG. 19
T2 construct: Each of the Apo-2L receptor proteins were prepared as immuno adhesin sessentially as described in Ashkenazi et al; made in house
Protocol: as §1

DcR2 = target: T3, DcR2 (Homo sapiens, UniProt Q9UBN6); test: BIAcore kinetic binding analysis; details: IgG-receptor fusion DcR2 immobilized; significant = >2-fold; FIG. 19
T3 construct: Each of the Apo-2L receptor proteins were prepared as immuno adhesin sessentially as described in Ashkenazi et al; made in house
T3 sequence (Q9UBN6 56-211 limits assumed): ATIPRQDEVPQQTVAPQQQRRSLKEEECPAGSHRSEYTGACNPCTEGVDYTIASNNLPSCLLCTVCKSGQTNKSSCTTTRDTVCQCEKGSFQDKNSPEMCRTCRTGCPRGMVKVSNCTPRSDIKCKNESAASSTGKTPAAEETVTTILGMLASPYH
Protocol: as §1

OPG = target: T4, OPG (Homo sapiens, UniProt O00300); test: BIAcore kinetic binding analysis; details: OPGR-IgG immobilized; FIG. 19
T4 construct: made in house
T4 sequence (O00300 22-401): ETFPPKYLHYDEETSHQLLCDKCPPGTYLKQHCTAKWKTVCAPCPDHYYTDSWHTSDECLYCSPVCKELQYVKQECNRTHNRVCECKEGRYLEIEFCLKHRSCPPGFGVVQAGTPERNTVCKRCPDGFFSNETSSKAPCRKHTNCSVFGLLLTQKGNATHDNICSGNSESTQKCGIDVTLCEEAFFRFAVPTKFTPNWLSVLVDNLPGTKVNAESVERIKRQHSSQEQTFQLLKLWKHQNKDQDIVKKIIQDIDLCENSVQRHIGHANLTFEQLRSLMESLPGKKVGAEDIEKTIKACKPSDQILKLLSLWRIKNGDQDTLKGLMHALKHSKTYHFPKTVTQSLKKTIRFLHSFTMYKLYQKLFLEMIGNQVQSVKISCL
Protocol: as §1

T2 sequence (O14763 56-184 limits assumed): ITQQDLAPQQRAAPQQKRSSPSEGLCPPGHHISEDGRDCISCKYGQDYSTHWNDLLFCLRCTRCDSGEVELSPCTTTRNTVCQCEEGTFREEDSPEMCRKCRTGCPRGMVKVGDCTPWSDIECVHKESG
T1 sequence (O00220 24-239 limits assumed): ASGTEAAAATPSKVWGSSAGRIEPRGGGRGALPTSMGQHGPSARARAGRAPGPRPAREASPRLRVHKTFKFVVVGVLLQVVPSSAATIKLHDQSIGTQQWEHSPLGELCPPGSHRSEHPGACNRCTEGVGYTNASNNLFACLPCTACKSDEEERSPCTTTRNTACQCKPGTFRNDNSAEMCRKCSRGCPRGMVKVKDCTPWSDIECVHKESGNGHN

B1: D218A: Apo-2 ligand amino acids 91-281 with aspartic acid at position 218 substituted by alanine (protein)
chain: MAMMEVQGGPSLGQTCVLIVIFTVLLQSLCVAVTYVYFTNELKQMQDKYSKSGIACFLKEDDSYWDPNDEESMNSPCWQVKWQLRQLVRKMILRTSEETISTVQEKQQNISPLVRERGPQRVAAHITGTRGRSNTLSSPNSKNEKALGRKINSWESSRSGHSFLSNLHLRNGELVIHEKGFYYIYSQTYFRFQEEIKENTKNDKQMVQYIYKYTSYPAPILLMKSARNSCWSKDAEYGLYSIYQGGIFELKENDRIFVSVTNEHLIDMDHEASFFGAFLVG
Q: How did the “increased apoptosis-inducing activity when compared to Apo-2L.2” value (SK-MES-1 cells) turn out when B1 was run?
A: The value was “approximately 3 fold”.

Q: And the “change in binding (KD) compared to Apo-2L.2” value (shortened to “change in binding (KD)”) (DR4)?
A: The value was “no significant change”.

Q: And the “change in binding (KD)” value (DR5)?
A: The value was “no significant change”.

Q: What about the “change in binding (KD)” value (DcR2) of the same molecule?
A: The value was “no significant change”.

Q: And the “binding to OPGR-IgG compared to Apo-2L.2” value (OPG)?
A: The value was “tighter binding”.

B2: D269A: Apo-2 ligand amino acids 91-281 with aspartic acid at position 269 substituted by alanine (protein)
chain: MAMMEVQGGPSLGQTCVLIVIFTVLLQSLCVAVTYVYFTNELKQMQDKYSKSGIACFLKEDDSYWDPNDEESMNSPCWQVKWQLRQLVRKMILRTSEETISTVQEKQQNISPLVRERGPQRVAAHITGTRGRSNTLSSPNSKNEKALGRKINSWESSRSGHSFLSNLHLRNGELVIHEKGFYYIYSQTYFRFQEEIKENTKNDKQMVQYIYKYTSYPDPILLMKSARNSCWSKDAEYGLYSIYQGGIFELKENDRIFVSVTNEHLIDMAHEASFFGAFLVG
Q: How did the “increased apoptosis-inducing activity when compared to Apo-2L.2” value (SK-MES-1 cells) turn out when B2 was run?
A: Its value is roughly 7 fold.

Q: What about the “change in binding (KD)” value (DR4) of the same molecule?
A: Its value is “no significant change”.

Q: And the “change in binding (KD)” value (DR5)?
A: Its value is “no significant change”.

Q: And the “change in binding (KD)” value (DcR2)?
A: The value was “no significant change”.

Q: And the “binding to OPGR-IgG compared to Apo-2L.2” value (OPG)?
A: Its value is “tighter binding”.
